Test results published in paper PMC3186216 (Biochemistry, 2010).

Target: T1, calnexin (dog (endogenous in MDCK), UniProt P24643 21-593)
T1 sequence (looked up): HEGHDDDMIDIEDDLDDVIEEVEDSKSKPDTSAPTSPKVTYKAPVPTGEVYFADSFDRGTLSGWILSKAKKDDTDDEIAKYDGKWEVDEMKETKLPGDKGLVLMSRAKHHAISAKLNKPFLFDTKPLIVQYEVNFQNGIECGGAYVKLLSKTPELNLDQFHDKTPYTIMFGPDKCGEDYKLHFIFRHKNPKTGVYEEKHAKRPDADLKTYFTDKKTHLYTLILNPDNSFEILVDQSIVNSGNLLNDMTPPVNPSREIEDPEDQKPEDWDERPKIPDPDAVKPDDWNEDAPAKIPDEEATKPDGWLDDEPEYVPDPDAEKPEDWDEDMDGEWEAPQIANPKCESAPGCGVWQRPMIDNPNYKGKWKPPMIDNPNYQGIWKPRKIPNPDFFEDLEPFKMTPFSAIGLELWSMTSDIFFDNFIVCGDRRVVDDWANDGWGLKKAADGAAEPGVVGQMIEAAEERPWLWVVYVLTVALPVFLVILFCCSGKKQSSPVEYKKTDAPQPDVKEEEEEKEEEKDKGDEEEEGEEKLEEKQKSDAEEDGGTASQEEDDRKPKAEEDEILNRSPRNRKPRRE
Test: co-IP

normalised amount coprecipitated, fold of that of YFP-β1: ~7 fold
B1: YFP-linked Na,K-ATPase β2 subunit (human), wild type (natural protein, UniProt P14415 1-290, looked up)
chain: MVIQKEKKSCGQVVEEWKEFVWNPRTHQFMGRTGTSWAFILLFYLVFYGFLTAMFTLTMWVMLQTVSDHTPKYQDRLATPGLMIRPKTENLDVIVNVSDTESWDQHVQKLNKFLEPYNDSIQAQKNDVCRPGRYYEQPDNGVLNYPKRACQFNRTQLGNCSGIGDSTHYGYSTGQPCVFIKMNRVINFYAGANQSMNVTCAGKRDEDAENLGNFVMFPANGNIDLMYFPYYGKKFHVNYTQPLVAVKFLNVTPNVEVNVECRINAANIATDDERDKFAGRVAFKLRINKT
modifications: N-glycans at all eight N-glycosylation sites; only the high-mannose form coprecipitated with calnexin
